Data as given in patent US20240002531A1 (ONO PHARMACEUTICAL, published 2024).
Each block holds one binder with its values, some of them ahead of it.

What was measured:
HER2 peptide p611-620 = target: T1, HER2 peptide p611-620 (human); assay: SPR Biacore, mAb on chip, peptide analyte, 1:1 fit
T1 peptide: MPIWKFPDEE

HER2 peptide p610-619 = target: T2, HER2 peptide p610-619 (human); assay: SPR Biacore, mAb on chip, peptide analyte, 1:1 fit
T2 peptide: YMPIWKFPDE

HER2 peptide p613-621 = target: T3, HER2 peptide p613-621 (human); assay: SPR Biacore, mAb on chip, peptide analyte, 1:1 fit
T3 peptide: IWKFPDEEG

HER2 peptide p610-620 = target: T4, HER2 peptide p610-620 (human); assay: SPR Biacore, mAb on chip, peptide analyte, 1:1 fit
T4 peptide: YMPIWKFPDEE

HER2 peptide p609-619 = target: T5, HER2 peptide p609-619 (human); assay: SPR Biacore, mAb on chip, peptide analyte, 1:1 fit
T5 peptide: SYMPIWKFPDE

HER2 peptide p610-622 = target: T6, HER2 peptide p610-622 (human); assay: SPR Biacore, mAb on chip, peptide analyte, 1:1 fit
T6 peptide: YMPIWKFPDEEGA

HER2 peptide p609-620 = target: T7, HER2 peptide p609-620 (human); assay: SPR Biacore, mAb on chip, peptide analyte, 1:1 fit
T7 peptide: SYMPIWKFPDEE

HER2 peptide p613-619 = target: T8, HER2 peptide p613-619 (human); assay: SPR Biacore, mAb on chip, peptide analyte, 1:1 fit
T8 peptide: IWKFPDE

HER2 peptide p611-621 = target: T9, HER2 peptide p611-621 (human); assay: SPR Biacore, mAb on chip, peptide analyte, 1:1 fit
T9 peptide: MPIWKFPDEEG

[1] = target: T10, M611A peptide (HER2 603-622 with M611A) (human); assay: SPR Biacore, mAb on chip, peptide analyte, 1:1 fit;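 further: where kon or koff could not be resolved by kinetic fitting, Kd comes instead from steady-state equilibrium analysis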
T10 peptide: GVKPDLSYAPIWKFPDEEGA

[2] = target: T11, HER2 peptide p603-622 (amino acids 603 to 622 of human HER2) (human); assay: SPR Biacore, mAb on chip, peptide analyte, 1:1 fit;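 further: where kon or koff could not be resolved by kinetic fitting, Kd comes instead from steady-state equilibrium analysis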
T11 construct: Synthetic peptide; also called wild-type HER2 peptide
T11 peptide: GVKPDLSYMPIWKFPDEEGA

[3] = target: T12, S609A peptide (HER2 603-622 with S609A) (human); assay: SPR Biacore, mAb on chip, peptide analyte, 1:1 fit;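 further: where kon or koff could not be resolved by kinetic fitting, Kd comes instead from steady-state equilibrium analysis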
T12 peptide: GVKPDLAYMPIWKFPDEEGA

[4] = target: T13, P606A peptide (HER2 603-622 with P606A) (human); assay: SPR Biacore, mAb on chip, peptide analyte, 1:1 fit;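 further: where kon or koff could not be resolved by kinetic fitting, Kd comes instead from steady-state equilibrium analysis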
T13 peptide: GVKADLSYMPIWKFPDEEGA

[5] = target: T14, I613A peptide (HER2 603-622 with I613A) (human); assay: SPR Biacore, mAb on chip, peptide analyte, 1:1 fit
T14 construct: also called 1613A
T14 peptide: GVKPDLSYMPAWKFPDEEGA

[6] = target: T15, G603A peptide (HER2 603-622 with G603A) (human); assay: SPR Biacore, mAb on chip, peptide analyte, 1:1 fit
T15 peptide: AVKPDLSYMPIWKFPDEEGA

[7] = target: T16, A622G peptide (HER2 603-622 with A622G) (human); assay: SPR Biacore, mAb on chip, peptide analyte, 1:1 fit
T16 peptide: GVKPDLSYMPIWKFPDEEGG

[8] = target: T17, Y610A peptide (HER2 603-622 with Y610A) (human); assay: SPR Biacore, mAb on chip, peptide analyte, 1:1 fit
T17 peptide: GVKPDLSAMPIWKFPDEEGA

[9] = target: T18, K615A peptide (HER2 603-622 with K615A) (human); assay: SPR Biacore, mAb on chip, peptide analyte, 1:1 fit
T18 peptide: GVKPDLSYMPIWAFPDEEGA

[10] = target: T19, P617A peptide (HER2 603-622 with P617A) (human); assay: SPR Biacore, mAb on chip, peptide analyte, 1:1 fit
T19 peptide: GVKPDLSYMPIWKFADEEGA

[11] = target: T20, P612A peptide (HER2 603-622 with P612A) (human); assay: SPR Biacore, mAb on chip, peptide analyte, 1:1 fit
T20 peptide: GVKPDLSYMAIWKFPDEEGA

[12] = target: T21, L608A peptide (HER2 603-622 with L608A) (human); assay: SPR Biacore, mAb on chip, peptide analyte, 1:1 fit
T21 peptide: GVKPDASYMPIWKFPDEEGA

[13] = target: T22, W614A peptide (HER2 603-622 with W614A) (human); assay: SPR Biacore, mAb on chip, peptide analyte (ka N.D.)
T22 peptide: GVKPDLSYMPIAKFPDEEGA

[14] = target: T23, HER2-W614A expressed on CHO-K1 cells (human, UniProt P04626 23-1255); assay: flow cytometry on CHO-K1 cells expressing HER2-W614A
T23 construct: also called W614A point mutant; not shown: PA tag at the N terminus; RAP tag and MAP tag at the C terminus

- Kd (HER2 peptide p611-620): 2.65 nM
- koff (HER2 peptide p611-620): 0.000387 s⁻¹
- kon (HER2 peptide p611-620): 146000 M⁻¹ s⁻¹
- Kd (HER2 peptide p610-619): 1.19 nM
- koff (HER2 peptide p610-619): 0.00038 s⁻¹
- kon (HER2 peptide p610-619): 319000 M⁻¹ s⁻¹
- Kd (HER2 peptide p613-621): 10.5 nM
- koff (HER2 peptide p613-621): 0.00343 s⁻¹
- kon (HER2 peptide p613-621): 325000 M⁻¹ s⁻¹
- Kd (HER2 peptide p610-620): 1.32 nM
- koff (HER2 peptide p610-620): 0.000342 s⁻¹
- kon (HER2 peptide p610-620): 260000 M⁻¹ s⁻¹
- Kd (HER2 peptide p609-619): 1.2 nM
- koff (HER2 peptide p609-619): 0.000293 s⁻¹
- kon (HER2 peptide p609-619): 244000 M⁻¹ s⁻¹
- Kd (HER2 peptide p610-622): 1.81 nM
- koff (HER2 peptide p610-622): 0.00033 s⁻¹
- kon (HER2 peptide p610-622): 183000 M⁻¹ s⁻¹
- Kd (HER2 peptide p609-620): 1.24 nM
- koff (HER2 peptide p609-620): 0.000291 s⁻¹
- kon (HER2 peptide p609-620): 234000 M⁻¹ s⁻¹
- Kd (HER2 peptide p613-619): 10.3 nM
- koff (HER2 peptide p613-619): 0.0041 s⁻¹
- kon (HER2 peptide p613-619): 397000 M⁻¹ s⁻¹
- Kd (HER2 peptide p611-621): 1.89 nM
- koff (HER2 peptide p611-621): 0.000411 s⁻¹
- kon (HER2 peptide p611-621): 218000 M⁻¹ s⁻¹
- Kd [1]: 7.45 nM
- koff [1]: 0.000445 s⁻¹
- kon [1]: 59700 M⁻¹ s⁻¹
- Kd [2]: 5.8 nM
- koff [2]: 0.00037 s⁻¹
- kon [2]: 63900 M⁻¹ s⁻¹
- Kd [3]: 6.51 nM
- koff [3]: 0.000394 s⁻¹
- kon [3]: 60600 M⁻¹ s⁻¹
- Kd [4]: 5.34 nM
- koff [4]: 0.000393 s⁻¹
- kon [4]: 73600 M⁻¹ s⁻¹
- Kd [5]: 93.9 nM
- koff [5]: 0.00828 s⁻¹
- kon [5]: 88400 M⁻¹ s⁻¹
- Kd [6]: 5.87 nM
- koff [6]: 0.00043 s⁻¹
- kon [6]: 73300 M⁻¹ s⁻¹
- Kd [7]: 6.87 nM
- koff [7]: 0.000453 s⁻¹
- kon [7]: 65900 M⁻¹ s⁻¹
- Kd [8]: 7.9 nM
- koff [8]: 0.000451 s⁻¹
- kon [8]: 57100 M⁻¹ s⁻¹
- Kd [9]: 336 nM
- koff [9]: 0.00963 s⁻¹
- kon [9]: 28700 M⁻¹ s⁻¹
- Kd [10]: 207 nM
- koff [10]: 0.00914 s⁻¹
- kon [10]: 44100 M⁻¹ s⁻¹
- Kd [11]: 9.54 nM
- koff [11]: 0.000609 s⁻¹
- kon [11]: 63800 M⁻¹ s⁻¹
- Kd [12]: 8.79 nM
- koff [12]: 0.000431 s⁻¹
- kon [12]: 49100 M⁻¹ s⁻¹
- koff [13]: 0.00438 s⁻¹
B1: H2Mab-250 antibody (antibody, V domains shown)
VH: EVQLVESGGGLVQPGGSLKLSCAASGFTFSNYGMSWVRQTPDRRLELVATINNNGGGTYYPDSVKGRFTISRDNAKNTLYLQMSSLKSEDTAMYYCTSPGLLWDAWGAGTTVTVSS
VL: not shown
notes: Mouse monoclonal from a hybridoma (immunogen HER2ec made in LN229 cells); also called antibody of the present invention

- binding result [14]: binds
B2: H2Mab-214 antibody (antibody, V domains shown)
VH: QVTLKESGPGILQPSQTLSLTCSFSGFSLSTSGMGVSWIRQPSGKGLEWLAHIFWDDDKRYNPSLKSRLTISKDTSRNKVFLKITSVDTADTATYYCARRVVATDWYFDVWGAGTTVTVSS
VL: DIVLTQSPASLAVSLGQRATISCRASESVEYYGTTLMQWYQQKPGQPPKLLIYAASKVESGVPARFSGSGSGTDFSLNIHPVEEDDVAMYFCQQSRKVPLTFGAGTKLELKR
notes: as for B1
